Assay results as given in publication PMC9638925 (Nucleic Acids Research, 2022).

Biological target: T1, USP15 (275–981) (human, UniProt Q9Y4E8 275-981)
T1 sequence: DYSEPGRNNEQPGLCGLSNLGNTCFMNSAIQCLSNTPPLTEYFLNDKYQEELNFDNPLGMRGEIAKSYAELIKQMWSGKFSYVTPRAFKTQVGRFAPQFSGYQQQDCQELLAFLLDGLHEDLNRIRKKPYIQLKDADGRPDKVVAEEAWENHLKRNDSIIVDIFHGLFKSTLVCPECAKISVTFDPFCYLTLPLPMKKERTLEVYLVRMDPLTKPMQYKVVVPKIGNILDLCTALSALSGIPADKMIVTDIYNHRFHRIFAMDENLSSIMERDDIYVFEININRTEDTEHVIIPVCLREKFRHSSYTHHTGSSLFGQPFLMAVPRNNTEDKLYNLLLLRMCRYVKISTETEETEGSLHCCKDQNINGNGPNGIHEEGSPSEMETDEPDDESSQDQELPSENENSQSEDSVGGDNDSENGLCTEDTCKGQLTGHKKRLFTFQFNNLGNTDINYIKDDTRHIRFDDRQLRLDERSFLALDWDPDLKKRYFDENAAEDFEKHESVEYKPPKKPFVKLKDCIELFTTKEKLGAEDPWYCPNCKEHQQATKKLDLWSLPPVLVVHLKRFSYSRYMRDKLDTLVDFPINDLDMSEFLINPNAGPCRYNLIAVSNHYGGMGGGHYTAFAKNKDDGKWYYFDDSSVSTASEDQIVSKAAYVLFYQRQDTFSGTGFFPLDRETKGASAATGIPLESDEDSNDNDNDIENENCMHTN
Assay: pull-down

B1: GST–cGAS (161–522) (domain or fragment)
chain: GASKLRAVLEKLKLSRDDISTAAGMVKGVVDHLLLRLKCDSAFRGVGLLNTGSYYEHVKISAPNEFDVMFKLEVPRIQLEEYSNTRAYYFVKFKRNPKENPLSQFLEGEILSASKMLSKFRKIIKEEINDIKDTDVIMKRKRGGSPAVTLLISEKISVDITLALESKSSWPASTQEGLRIQNWLSAKVRKQLRLKPFYLVPKHAKEGNGFQEETWRLSFSHIEKEILNNHGKSKTCCENKEEKCCRKDCLKLMKYLLEQLKERFKDKKHLDKFSSYHVKTAFFHVCTQNPQDSQWDRKDLGLCFDNCVTYFLQCLRTEKLENYFIPEFNLFSSNLIDKRSKEFLTKQIEYERNNEFPVFDEF
Does B1 bind?
Result: binds
